Reference: publication PMC10654636

Legend:
Test in all cases: BLI; biotinylated recombinant human FcγR loaded on SAX (streptavidin) biosensors, antibody in serial dilutions in solution; kinetic buffer 1% casein, 0.2% Tween20, 1x PBS pH 7.4; 30°C; Octet HTX; global fit, 1:1 Langmuir model
[1] = molecular target: human FcγRIIb (CD32b), biotinylated recombinant protein (human) (UniProt P31994)
[2] = molecular target: human FcγRI (CD64), biotinylated recombinant protein (human) (UniProt P12314)
[3] = molecular target: human FcγRIIa H131 (CD32a H131), biotinylated recombinant protein (human) (UniProt P12318)
[4] = molecular target: human FcγRIIIa F158 (CD16 F158), biotinylated recombinant protein (human) (UniProt P08637)
[5] = molecular target: human FcγRIIIa V158 (CD16 V158), biotinylated recombinant protein (human)
[6] = molecular target: human FcγRIIa R131 (CD32a R131), biotinylated recombinant protein (human)

Sequence of nonfucosylated anti-TIGIT mAb, human IgG1 (SEA-TGT) (antibody; other documents disagree on this pair) (VH): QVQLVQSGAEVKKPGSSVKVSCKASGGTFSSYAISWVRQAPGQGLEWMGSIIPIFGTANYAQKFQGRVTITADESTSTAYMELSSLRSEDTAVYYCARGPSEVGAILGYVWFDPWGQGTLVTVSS
Sequence of nonfucosylated anti-TIGIT mAb, human IgG1 (SEA-TGT) (antibody; other documents disagree on this pair) (VL): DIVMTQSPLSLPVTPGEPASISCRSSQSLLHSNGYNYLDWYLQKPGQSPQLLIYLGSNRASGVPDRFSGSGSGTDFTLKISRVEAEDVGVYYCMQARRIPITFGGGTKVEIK
Sequence of nonfucosylated anti-TIGIT mAb, human IgG1 (SEA-TGT) (antibody) (VH): as the sequence (VH) above
Sequence of nonfucosylated anti-TIGIT mAb, human IgG1 (SEA-TGT) (antibody) (VL): as the sequence (VL) above

In the case of “nonfucosylated anti-TIGIT mAb, human IgG1 (SEA-TGT) (antibody; other documents disagree on this pair)”, the Kd [1] is reported as 19100 nM, the Kd [2] is reported as 1.9 nM and the Kd [3] is reported as 3220 nM. The Kd [4] was 490 nM.

“Fc-muted anti-TIGIT mAb, human IgG1 L234A/L235A/P329G (LALA-TGT) (antibody; other documents disagree on this pair)” was tested, and the Kd [2] was 25500 nM.

“anti-TIGIT mAb, human IgG1 S239D/A330L/I332E (DLE-TGT) (antibody; other documents disagree on this pair)” gave a Kd [1] of 3130 nM and a Kd [3] of 1620 nM.

In the case of “anti-TIGIT mAb, human IgG1 S239D/A330L/I332E (DLE-TGT) (antibody)”, the Kd [5] is reported as 60 nM and the Kd [6] is reported as 1560 nM.

For “nonfucosylated anti-TIGIT mAb, human IgG1 (SEA-TGT) (antibody)”, the Kd [5] was 90 nM and the Kd [6] was 3640 nM.
